To fix the notation:
B6: rat melanocortin-3 receptor (receptor)
chain: MNSSCCPSSSYPTLPNLSQHPAAPSASNRSGSGFCEQVFIKPEVFLALGIVSLMENILVILAVVRNGNLHSPMYFFLLSLLQADLLVSLSNSLETIMIVVINSDSLTLEDQFIQHMDNIFDSMICISLVASICNLLAIAVDRYVTIFYALRYHSIMTVRKALSLIVAIWVCCGICGVMFIVYSESKMVIVCLITMFFAMVLLMGTLYIHMFLFARLHVQRIAALPPADGLAPQQHSCMKGAVTITILLGVFIFCWAPFFLHLVLIITCPTNPYCICYTAHFNTYLVLIMCNSVIDPLIYAFRSLELRNTFKEILCGCNGMNVG
notes: Stably expressed in human 293 cells from pcDNA/neo I; also called rat MC-3 receptor; rat MC3-R

No end group written: not given here.

For assay [1], the target named is B6. The assay is described as follows: cell-based or functional assay.
Assay [2] has as its target human MC-3 receptor (human) (UniProt P41968). The assay is described as follows: cell-based or functional assay.
The target in assay [3] is mouse MC-5 melanocortin receptor (mouse) (UniProt P41149). The assay is described as follows: cell-based or functional assay.
Assay [4] deals with T1, mouse αMSH (MC-1) receptor (mouse) (UniProt Q01727).
T1 sequence: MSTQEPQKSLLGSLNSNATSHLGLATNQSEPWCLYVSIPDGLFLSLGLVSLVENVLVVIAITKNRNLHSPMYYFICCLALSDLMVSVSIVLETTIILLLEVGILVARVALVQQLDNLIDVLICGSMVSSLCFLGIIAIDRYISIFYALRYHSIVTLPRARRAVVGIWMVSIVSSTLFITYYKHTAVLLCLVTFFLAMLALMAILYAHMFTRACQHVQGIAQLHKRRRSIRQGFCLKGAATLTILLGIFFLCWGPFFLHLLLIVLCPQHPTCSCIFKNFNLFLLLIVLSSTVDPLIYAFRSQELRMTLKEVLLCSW
The assay is described as follows: cell-based or functional assay.

In assay [5] the target is T2, human melanocortin 4 receptor (human, UniProt P32245 1-332).
T2 chain: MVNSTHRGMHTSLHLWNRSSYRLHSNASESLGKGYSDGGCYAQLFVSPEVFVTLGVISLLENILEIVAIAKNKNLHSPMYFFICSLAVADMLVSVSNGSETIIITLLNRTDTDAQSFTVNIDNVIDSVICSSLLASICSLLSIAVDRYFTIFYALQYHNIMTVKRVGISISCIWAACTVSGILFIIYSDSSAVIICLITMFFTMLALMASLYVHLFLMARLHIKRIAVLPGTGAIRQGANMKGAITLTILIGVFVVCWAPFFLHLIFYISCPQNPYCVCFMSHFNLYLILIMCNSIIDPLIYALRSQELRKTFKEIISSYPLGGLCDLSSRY
The assay is described as follows: cell-based or functional assay.

In assay [6] the target is B6. The assay is described as follows: competition with 125I-NDP-MSH on suspended 293 cells expressing rat MC-3 receptor.
Another assay concerns the target T3, murine agouti peptide (mouse, UniProt Q03288 23-131, limits assumed).
T3 construct: Preparation was not homogeneous; also called endogenous mouse agouti peptide
T3 sequence (looked up): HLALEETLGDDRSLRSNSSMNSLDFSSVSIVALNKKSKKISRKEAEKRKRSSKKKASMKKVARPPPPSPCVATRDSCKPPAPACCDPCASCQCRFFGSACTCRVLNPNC
The assay is described as follows: competition with 125I-[Nle^4, D-Phe^7]α-MSH on 293 cells expressing rat MC-3 receptor; results not shown.

Consider twelve molecules from patent US20030105024A1 (STATE OF OREGON, published 2003).

Chain of human MC-3 receptor (human) (P41968 whole entry): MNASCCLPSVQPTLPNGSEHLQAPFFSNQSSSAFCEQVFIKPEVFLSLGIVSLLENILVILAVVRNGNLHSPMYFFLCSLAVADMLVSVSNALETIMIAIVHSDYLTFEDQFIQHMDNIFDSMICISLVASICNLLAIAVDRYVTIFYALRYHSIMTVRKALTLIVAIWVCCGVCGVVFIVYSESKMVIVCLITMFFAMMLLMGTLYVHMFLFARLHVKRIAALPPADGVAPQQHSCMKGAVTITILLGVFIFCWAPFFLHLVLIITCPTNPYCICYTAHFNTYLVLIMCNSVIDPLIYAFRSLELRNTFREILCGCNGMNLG
Chain of mouse MC-5 melanocortin receptor (mouse) (P41149 whole entry): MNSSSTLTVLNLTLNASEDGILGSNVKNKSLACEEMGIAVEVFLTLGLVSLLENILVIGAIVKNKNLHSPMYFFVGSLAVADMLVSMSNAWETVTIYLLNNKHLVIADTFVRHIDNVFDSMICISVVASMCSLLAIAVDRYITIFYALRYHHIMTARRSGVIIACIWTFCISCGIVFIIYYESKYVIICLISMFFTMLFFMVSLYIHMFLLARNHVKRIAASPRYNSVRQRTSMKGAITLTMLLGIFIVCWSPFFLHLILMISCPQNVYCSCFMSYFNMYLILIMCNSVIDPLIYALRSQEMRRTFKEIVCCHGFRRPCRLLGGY

In assay [1], “γ2-MSH (from UniProt P01189 77-88) (peptide)” showed an Ec50, intracellular cAMP of 3 nM.

“SHU9119, Ac-Nle^4-cyclo(Asp^5, D-Nal(2)^7, Lys^10) αMSH-(4-10)-amide (from UniProt P01189 141-147) (peptide)” displayed a pA2 (method of Schild) in assay [2] of 8.3.

Take “βMSH (from UniProt P01189 217-234) (peptide)”: the EC50, adenylate cyclase / cAMP-dependent β-galactosidase in assay [3] amounted to 5 nM.

Regarding “Nle^4, D-Phe^7-αMSH (from UniProt P01189 138-150) (peptide)”, the EC50, intracellular cAMP in assay [4] stood at 0.028 nM. For the same molecule, in assay [5], the Ec50, adenylate cyclase activity is 11 pM.

The molecule “desacetyl-αMSH (from UniProt P01189 138-150) (peptide)” showed an Ec50, intracellular cAMP in assay [1] of 8 nM.

B1: γ3-MSH (peptide, UniProt P01189 77-102, looked up)
peptide: YVMGHFRWDRFGRRNSSSSGSSGAGQ
modifications: ends and bridges not checked
For B1, the Ec50, intracellular cAMP in assay [1] worked out at 6 nM.

B2: γ1-MSH (peptide, UniProt P01189 77-87, looked up)
peptide: YVMGHFRWDRF
modifications: ends and bridges not checked
Consider B2, for which the Ec50, intracellular cAMP in assay [1] was 3 nM.

B3: adrenocorticotropic hormone (peptide, UniProt P01189 138-176, looked up)
peptide: SYSMEHFRWGKPVGKKRRPVKVYPNGAEDESAEAFPLEF
On to B3, for which the EC50, intracellular cAMP in assay [4] came out at 8 nM. Moreover, the Ec50, intracellular cAMP in assay [1] amounted to 4 nM. This molecule gave an Ec50, adenylate cyclase activity in assay [5] of 680 pM.

B4: γ-melanocyte stimulating hormone (peptide, UniProt P01189 77-88, looked up)
peptide: YVMGHFRWDRFG
notes: domain: γMSH; Printed without an index; also called γMSH; γ-MSH
One may read the Ki as the dissociation constant of the complex between target and ligand, obtained from inhibition or displacement. Take B4: in assay [6], the Ki was roughly 50 nM.

B5: α-melanocyte stimulating hormone (peptide, UniProt P01189 138-150, looked up)
peptide: SYSMEHFRWGKPV
modifications: ends and bridges not checked
notes: domain: αMSH; also called αMSH; α-MSH
Consider B5, for which the “Ec50, intracellular cAMP” value in assay [1] stood at 4 nM. Moreover, in assay [6], the Ki was roughly 100 nM.

Consider B6, for which, in the assay with murine agouti peptide, the binding result is “binds”.

B7: ACTH4-10 (peptide, UniProt P01189 141-147, looked up)
peptide: MEHFRWG
notes: domain: ACTH4-10
Consider B7, for which the “Ec50, intracellular cAMP” value in assay [1] turned out to be 100 nM. For the same molecule, in assay [5], the “Ec50, adenylate cyclase activity” value is greater than 100000 pM.
